Experiment: soluble on expression in E. coli; label from the status in PepcDB or PDB records

Question: Which “soluble on expression in E. coli” value does the source give for “MTASSDPHVIFVGSGINSLVSAALLATRGKRVLVLERNDRLGGCIRTEELFPGYHHEVMSSWYPLFVGSPGYAELKPALEQAGLAFLCPDYTTGLVWPDGRGLALKQDLNDAVQRLEALAPGDGAALGAMAARLFGPDAALTFGLLGQNPYGWAMLKLLFGQWRQRGTDGLAAFAADALETFRRWSERTLRSDLARALIAPWVLHSGLGPDDAGSALIGKLTFASVVSGGMPVVKGGGSRLVEALARVIEQHGGTLMTGTPVEQVLTEGQGRRRRATGVAVTGGRRLRAQQAVVCNVTPQQLYGRLLPEMPQPLRERAEGYRYGRGDMQIHFALNAPPAWREAELCKVPLVHLTESLEQVCASVTQANNGLLPSRPTLGIGQPTVADPSRAPAGGWILWIQMQELPTRLKGDAAGEIPVPADGRWNEAVREAFADRVQARLERVMPGLAERIVGRRAYSPADLEVLNCNLVGGDPYSGVCSPDQFFWLRPFAGSQGARAHRTPLANVFHIGASTHPGPGLGAGSGFMVAQHLSPR” here?
Answer: The value was “not soluble”.

Question: For “MTATPLYCAEPARLDTARRLCERFSLPLIKQRPADGYWLELGSERLELLTTGKHGAVYAEFVEGAARHRREQGGGRGQPVAKAVGLKGAKDLPHVADATAGLGRDSFVLATLGCRVTMVERSPVAAALLADALERAQRDETTRDIAARMTLVHANSRNWLAGLTEAQRPDVVFVDPMFPDTDKKSAAAKKDMQAFQQVIGDDMDSAELLAAAIAAARVRVVVKRPRLGAAIAGVKPSAVLDGKSTRFDLYVIKALASGLEHHHHHH”, which “soluble on expression in E. coli” value is on record?
Answer: The value was “soluble”.

Question: Which “soluble on expression in E. coli” value does the source give for “MTAWLLSLALNLPFLGGPQEYQILVALGCSAPRHVQNGYREMLAHEVLPRLAEKVTTTQVRLTLAPITGRSYTAPARVLETPNPLSTPRFQLEEAKKTFQKEALRTFDELRKRAAAECSRGTEIIGALKAAGERARKPGRILVLAHGFEQSELMNLYDYRLKLEKREVRQGLLQRVKARLGLPNLKDQEVCIAGITAGNDNNANARLTTSIKAFWEELIQASGGRLVGYGTTPRVCPFL” here?
Answer: Its value is “soluble”.

Question: With “MTAYGHMPGEAIECLSIAVELHKQEVIDAHGQVTIRVGFKIGGGIDQDPTKAPFKYPDSGVYITNVESGSPADVAGLRKHDKILQVNGADFTMMTHDRAVKFIKQSKVLHMLVARADLPPVSLH” as the sequence, how does the “soluble on expression in E. coli” value read?
Answer: The value was “not soluble”.

Question: With “MTCDDWNSYIQVNIYGKTIEGLQQQGVVLESLLNNVGCSKVWIMEGSVCTNPRPESSTHSEESTIEPVVPLSTTLATNKLPRFSTPAIGHSNNNSSKNFTLNLAEKLSEILSDDDKTDEFLENSHQSETSKDDVIKDLLEEMVQTVANSNKPPILLSTTLANVGVPRFSTPIKPQHALNRDFTMNMTEMISEIDSNYEGYELFDDSSNDCTTLTPNCQEVESSFYRALSEAASSIVPYQEGKRRSSRRLSTLSSLKETVKVEPAVSKLTKRRRLTPVECSSETMIPHSQPIPLDTCSDQPIFPNSTHNAIQSDGFSYEQPICEFGDSQLFLSAKSLCTEPNSSIAEDVKPVLTVSDSDITASNRNNIDDHNRVIELSTEV” as the sequence, how does the “soluble on expression in E. coli” value read?
Answer: The value was “not soluble”.

Question: With “MTCEGRRTMTQPISLGHRMSLIDLYDLRMPQRTGTYVLHEENLAIIETGPSPSVPHLLAGLKALHIDPADIRYIIVTHIHLDHAGGVGVLLEHCPNATVIVHPKGKRHLADPSRLIAGAKAVYGEQFDALFDPIVPVPEERLLVKEDGETLVLSAERTLTFYDTPGHANHHFSIYDSYSGGVFTGDTIGVFYPQLQEAGLAFCLPSTSPNQFNPEAMKQSAERLEKLNPTRIYFGHFGALDQPEEAFRQLRFWLPKFVAAGKEVIARHPEAPAAEQAKAVTKLLHNDITAFLNECSIPASSPVYKVIELDLQVCAMGIIDYWRKQRLEHHHHHH” as the sequence, how does the “soluble on expression in E. coli” value read?
Answer: The value was “soluble”.

Question: Which “soluble on expression in E. coli” value does the source give for “MTDETTQNIKDKTEEELAALLDQTLGEFTATPAPKPRTTDDELDELMASADQEAAQKAAKDFQKMLEQMVTLQEEAMKKAGADPSEGEGEQPLDPNDPEALAMMDALKQLMECSSNVANASNPEEFMAGLDMLRSPNSPMEPFMSMIMQTLASKEVMYPPLKEIFDNYPKYLEDNGAGLDAETKERYEKQFEVLGKICTEFEKQPELAEVQPVDAATQPAPEADPASIEHFEKLGKLLVELQQYGYPPKELVGALPDGWQIDESGLPKVADAAAATEACSIM” here?
Answer: Its value is “soluble”.

Question: For “MTDIAKLEPTAVWEHFQTLCDIPRPSKHEEQVRDYMKGWAELRGLETVVDKVGNLIIRKPATPGYEDRAGVVLQGHLDMVCQANSGTEHDFFKDPIRPVLKDGWLVAENTTLGADNGIGVALGMAVLSGDDVAHGPVEVLLTLDEEAGMGGALGLETGLLRGQYLINIDTEEWGEFYMGCAGGVDVNVTREYAVEAVPAGFQTASLTIKGLKGGHSGADIHLGRGNANKILIRLLRELEAETELRLSSLQGGTARNALSREAFAVVAYPTADAAKVAAKLDAFQALMRFELAGVDEGVSVLSEAAPAAGVLARADQDVILAALHAAPHGVKRMSQRVEGVVETSNNLGVVSVADGKVFANLMVRSLLDSGTWMLAREAESLFKLAAFKVEMEGGYPGWAPNPQSKLLALFKDVYRREFGAEAEVQVIHAGLECGILGSKYPNLDMVSFGPNIRGAHAPGERVEVESVGKAWQLLQAVLKAIPARLEHHHHHH”, which “soluble on expression in E. coli” value is on record?
Answer: The value was “soluble”.

Question: With “MTDLSRMQGFADSAIPALEGRFFRPPLPEGYVPRSRLCQRLNEGLGGRLLLVCAPAGFGKSSLAVEFCQGLPDQWQNVWLGLSARDSEPGRFLERLLGSLQQFFPQLGAQAMGLLKMRQRHQPFAFEEWLDSLLDELAMHLMLSKPLLLVLDDYHLAQGPVLDRCLQFFLNHLPAGLVVMVTSRQRPDWHLARLRLTRQLLEINEQDLRLTQAESMAVLDRHSRSLDSEALQSLILRSEGWVAGLRFWLLAASEAGDESALSQALRGSEVLIREYLLEEVIDCLPADVQAFLYDTACLERFCAELCNAARDSHDSVEMLRYLQAHQVFLVPLDEQGRWFRYHHLFSDLLRARQTADAQTTRLHLNACRWFSAQGQLDEAVEQALRAGHLDVAANLVQNLSEEQLLAEQNVGMLLRWKMDLPDDLLTSTPRLIVLYAWALGLACQLDAAEELANQLSRFLPAPSATAQKSMLAQWLALSGIIARGRGDSEKTERYCREALLTLPQRRYGQRLVCLSTLANLAVAEGDLWQARVLNRDALELAQRVANPLFEALAHYDRARVLQARGEIIRALEEVRQGQQRLKGLSTVRLYAVRARLTLYEGYLLALRLQVDEGRALLLAGLAEARACRDISVLIGHCVIATMEGFAGRFAEAFAELAEAERLMHIWDVPPIYYLAMITLVKCELWLIQGRIDLAEAWLLRLTQTYNGGLGAAAPECHPQLSQHIELQRAVLERIQGDEVASEQRLQALEQRAQEVGAQLLRLIAMTQQIALLLNQGRQDEARTLLIRSVQASAGGALLPFRVLLAEHSQWLHEQLQLAPSCKLCNALREKFPACFKPAAPEPAHGSDCLSVRELGVLRLIAQGCSNQEISEQLFISLHTVKTHASHINSK” as the sequence, how does the “soluble on expression in E. coli” value read?
Answer: Its value is “not soluble”.

Question: With “MTDLVAVWDVALSDGVHKIEFEHGTTSGKRVVYVDGKEEIRREWMFKLVGKETFFVGAAKTKATINIDAISGFAYEYTLEIDGKSLKKYMENRSKTTSTWVLRLDGEDLRVVLEKDTMDVWCNGQKMETAGEFVDDGTETHFSVGNHGCYIKAVSSRKRKEGIIHTLIVDNREIPELTQ” as the sequence, how does the “soluble on expression in E. coli” value read?
Answer: Its value is “soluble”.

Question: Which “soluble on expression in E. coli” value does the source give for “MTDQATPNLPSRDFDSTAAFYERLGFGIVFRDAGWMILQRGDLMLEFFAHPGLDPLASWFSCCLRLDDLAEFYRQCKSVGIQETSSGYPRIHAPELQGWGGTMAALVDPDGTLLRLIQNELLAGIS” here?
Answer: Its value is “soluble”.

Question: Which “soluble on expression in E. coli” value does the source give for “MTDSELMQLSEQVGQALKARGATVTTAESCTGGWVAKVITDIAGSSAWFERGFVTYSNEAKAQMIGVREETLAQHGAVSEPVVVEMAIGALKAARADYAVSISGIAGPDGGSEEKPVGTVWFAFATARGEGITRRECFSGDRDAVRRQATAYALQTLWQQFLQNT” here?
Answer: Its value is “not soluble”.

Question: Which “soluble on expression in E. coli” value does the source give for “MTDSPSPIDSSFDASDVATPCTVIAAKISLRNRNGLEEDQENLDSFDAFTETHETQESKNIAHGEHEEDVSNIYVDDFSKEFGDTVSSVMEPLPKPLTFARTITKVYCHLDDQEHPYMVEVHVPPDCITLRDVKRKLMRTNFKYYCIALDPDTGLEVKAEVRDDSRRLYPLKNGRFELYLLTVEGSVHSDTSSGRHRRKQDGSSKGSSGSREYLRAAHHYDNPTPFSDDESQASSLPTYVKKAHAYNRKHAPQAYERHLPHMKHNNRHNHHRQNHYEESTFDVTTESDDHYRDGVTYYDEDEDDSRSINTDLTSVSQVHLKQKWRQQQKEMRNKWKRMPSISTASSSFSSITESSMGLEVITVRLNLETIPLGMTPSGHTNARGDAGLYVGDIQDRGAVALDGRIDIGDMIVGINEISLGNYSNKEAVQLLREAVQRQYLTLTIAKTGDPKQNAFPRNPRAEPIRPIDPNEWVKHATNAMKAMPSISEGSGLDIKDRYWFKIPIPMSFLGTDLVEWLVKHVQGLETKKKAREFAEEMLKLGYIRPGVGKQSFTKECYYVMGDECADYTQLRGPDGGYKYPQSHASSASGHSSNNLIFPPSMYPPQPPTAGAVQSSKFEGREMIREVKRVGVVEEAREGTSNYHGSLHHSAVGLV” here?
Answer: Its value is “soluble”.

Question: For “MTDSRTHLRLQIRQRRQSLSAFEQQTASQQLIHTFASLPEVTAAQRIALYLANDGELNTQPLIEWLWQQGKQVYLPVLHPFAKGHLLFLHYHTHTPMNKNRYGIAEPKLDQRLICPVRELDIIGTPLVAFDQSGQRLGMGGGYYDRTLAPWFKTQQGAMPIGLAHDCQQVEQLPTASWDIPLRKIVTPSKVWQWLEHHHHHH”, which “soluble on expression in E. coli” value is on record?
Answer: Its value is “not soluble”.

Question: With “MTEALELGDCLLSGAVGLVVKRRSGIAEDVARLVVKELVESGVEVLVDETVDYPSLSGFPRFSISRDPPGRVVVVGGDGTLLRTFLRLGERESPLFMTIKAGKKGFLLDVERYEAVERLRDFLEGRFREVVYPRYRVYLEGEARACMFNDTAVTANNAKMARVHVFVDGDLAMNIDGDGVVVSTTAGSTAYSLSGGGPIIDPRLDVIVLTPLNPVQLFLRSIVVPSGSRVTVEASVYSNPLVVNIDGQYVYELEPGGIVDIERCGSGVRIARFRWWEDYYERLYTRLLAYWAAALEHHHHHH” as the sequence, how does the “soluble on expression in E. coli” value read?
Answer: The value was “not soluble”.

Question: For “MTEHLDVVIVGAGISGVSAAWHLQDRCPTKSYAILEKRESMGGTWDLFRYPGIRSDSDMYTLGFRFRPWTGRQAIADGKPILEYVKSTAAMYGIDRHIRFHHKVISADWSTAENRWTVHIQSHGTLSALTCEFLFLCSGYYNYDEGYSPRFAGSEDFVGPIIHPQHWPEDLDYDAKNIVVIGSGATAVTLVPALADSGAKHVTMLQRSPTYIVSQPDRDGIAEKLNRWLPETMAYTAVRWKNVLRQAAVYSACQKWPRRMRKMFLSLIQRQLPEGYDVRKHFGPHYNPWDQRLCLVPNGDLFRAIRHGKVEVVTDTIERFTATGIRLNSGRELPADIIITATGLNLQLFGGATATIDGQQVDITTTMAYKGMMLSGIPNMAYTVGYTNASWTLKADLVSEFVCRLLNYMDDNGFDTVVVERPGSDVEERPFMEFTPGYVLRSLDELPKQGSRTPWRLNQNYLRDIRLIRRGKIDDEGLRFAKRPAPVGV”, which “soluble on expression in E. coli” value is on record?
Answer: Its value is “soluble”.

Question: Which “soluble on expression in E. coli” value does the source give for “MTEHVITSKCESPLLQAFVDNYLLLVKIAARIVGCRSRAEDVVQDAFFRLRSAPQATLTFKAQLSYLFQIVRNLAIDHYRKQALEQKYTGPEAEGLNVVIQGASPEISHINFTSLEKIADALSELPPRTRYAFEMYRLHGVPQKDIAKELGVSPTLVNFMIRDALIHCRKVNGTTAEA” here?
Answer: The value was “not soluble”.

Question: Which “soluble on expression in E. coli” value does the source give for “MTEMTKPFLIVIVGPTASGKTELSIEVAKKFNGEIISGDSMQVYQGMDIGTAKVTTEEMEGIPHYMIDILPPDASFSAYEFKKRAEKYIKDITRRGKVPIIAGGTGLYIQSLLYNYAFEDESISEDKMKQVKLKLKELEHLNNNKLHEYLASFDKESAKDIHPNNRKRVLRAIEYYLKTKKLLSSRKKVQQFTENYDTLLIGIEMSRETLYLRINKRVDIMLGHGLFNEVQHLVEQGFEASQSMQAIGYKELVPVIKGNISMENAVEKLKQHSRQYAKRQLTWFKNKMNVHWLNKERMSLQMMLDEITTQINKRSSNHDCKRKHPRPSTRELLEHHHHHH” here?
Answer: The value was “soluble”.
